The test concerns the target efna1_mouse Efna1 (UniProt P52793).

This note sets out measurements from IntAct's records for PubMed 22036564.

efna1_mouse Efna1, sequence (P52793 whole entry): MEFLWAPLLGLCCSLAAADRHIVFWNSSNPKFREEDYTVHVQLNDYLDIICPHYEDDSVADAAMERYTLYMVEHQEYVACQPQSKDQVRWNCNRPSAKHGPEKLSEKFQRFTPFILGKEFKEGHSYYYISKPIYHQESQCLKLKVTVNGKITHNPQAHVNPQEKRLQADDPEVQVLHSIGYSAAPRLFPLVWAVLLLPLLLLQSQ

Turning to “Ephrin type-A receptor 7 (Homo sapiens), Q15375 T105Q”, the “effect of a mutation on the interaction” value was “decreasing interaction”.
